Results reported in PMC5426849.

Molecular target: fluoresceinated cortactin phospho-Y482 peptide
Assay: fluorescence polarisation

Substance | Kd [µM]
Abl SH2 domain, monomeric, cleaved from GST (from UniProt P00519 127-217) (domain or fragment) | > 5
PLCγ C-terminal SH2 domain, cleaved from GST (domain or fragment) | > 5
PLCγ N-terminal SH2 domain, cleaved from GST (domain or fragment) | > 5
p85α C-terminal SH2 domain, cleaved from GST (domain or fragment) | > 5
p85α N-terminal SH2 domain, cleaved from GST (domain or fragment) | > 5
